{
  "source": "patent US20080235828A1",
  "about": "(University of Manitoba, priority 2004, published 2008)",
  "molecules": {"B1": {"name": "ABAP1: barley ABA-binding protein, 472 amino acids, SEQ ID NO: 10; expressed from effector construct in bombardment tests (protein)", "chain": "MNSLSGTYIMRGCEQPLIVRFADPKRPRPGESRGGPAFGGPGVSSRSDAALVIRPTANLDEQIGRHMPPDTWRPSSPSSMAPHQFNNFGSDNSMGLMGGPVTSAADNVAFRPQLFHGNGSLSSQTAVPASSHMGINPSLSQGHHLGGPQIPPLQKPTGLQQNFPVQLQNAQQGQLHASQSLGPGSFGQNIPTMQLPGQLPVSQPLTQQNASACALQAPSAVQSNPMQSVPGQQQLPSNLTPQMLQQPVQQMLSQAPQLLLQQQQAAMQSSYQSSQQTIFQLQQQLQLMQQQQHQQQPNLNQQPHTQVPKQQGQPVQSNAPGAPAAMMTTNINAIPQQVNSPAVSLTCNWTEHTSPEGFKYYYNSITRESKWEKPEEYVLYEQQQQQQDHQKLILLQQHQQKLVAQQLQSPPQAQTIPSMQSMQHHPQSQQGHNQMQMKQQDLNYNQLQPTGTIDPSRIQQGIQAAQERSWKS", "modifications": "Hordeum, vulgare subsp. vulgare"}},
  "key": {"em promoter": {"test_system": "em promoter", "assay": "em promoter driven GUS expression in bombarded barley aleurone layers", "type": "cell-based", "settings": "em plus ABAP1 bombardment, without ABA treatment", "excerpt": "The studies examined the effector and reporter constructs, at a 1:1 ratio, introduced to barley aleurone layers by gold particle bombardment. The bombardment consisted of two trials: the first trial was a bombardment of em promoter only; the second trial was a bombardment of em promoters treated with ABAP1."}, "α-amylase activity": {"test_system": "α-amylase activity", "assay": "α-amylase activity in bombarded barley aleurones", "type": "cell-based", "settings": "em and ABAP1 bombarded aleurones", "quoted_text": "A similar experiment was conducted with α-amylase activity to confirm if ABAP1 is involved in another signal transduction pathway. α-amylase activity was measured after ABA, PBI51 and GA were added to the em and ADAPT bombarded barley aleurones."}, "McLeod barley embryos": {"test_system": "McLeod barley embryos", "assay": "Germination of bombarded mature embryos, McLeod line", "type": "in vivo", "settings": "in the presence of ABAP1", "protocol": "(§1) To determine whether or not ABAP1 affects seed germination, mature embryo from two different barley lines (McLeod and Harrington) were bombarded with sense and anti-sense orientation of ABAP1. The embryos were subjected to different ABA treatments and the germination rate, plumule length, radical length and root numbers per embryo were measured for up to four days after bombardment."}, "[1]": {"test_system": "Harrington barley embryos", "assay": "Germination and growth of bombarded mature embryos, Harrington line", "type": "in vivo", "protocol": "as §1"}},
  "data": [
    {"molecule": "B1", "values": [
      {"measurement": "GUS activity versus em alone", "setting": "em promoter", "result": "twice fold"},
      {"measurement": "α-amylase activity", "setting": "α-amylase activity", "result": "reduction"},
      {"measurement": "germination rate", "setting": "McLeod barley embryos", "result": "significantly lower"},
      {"measurement": "germination rates", "setting": "[1]", "result": "did not seem to be affected"},
      {"measurement": "plumule and radical growth", "setting": "[1]; in the presence of ABAP1", "result": "significantly retarded"}
    ]}
  ]
}
